Measured values taken from patent US20120309696A1 (UNIVERSITY OF DENVER, published 2012).

Legend:
[1] = molecular target: T1, human melanocortin 2 receptor (hMC2R), V-5 epitope tagged, expressed on CHO cells co-transfected with mouse … (human, UniProt Q01718 1-297); test: cell-based or functional assay
[2] = molecular target: T1, human melanocortin 2 receptor (hMC2R), …; test: cell-based or functional assay; remark: listed apart in the source

T1 sequence (Q01718 whole entry): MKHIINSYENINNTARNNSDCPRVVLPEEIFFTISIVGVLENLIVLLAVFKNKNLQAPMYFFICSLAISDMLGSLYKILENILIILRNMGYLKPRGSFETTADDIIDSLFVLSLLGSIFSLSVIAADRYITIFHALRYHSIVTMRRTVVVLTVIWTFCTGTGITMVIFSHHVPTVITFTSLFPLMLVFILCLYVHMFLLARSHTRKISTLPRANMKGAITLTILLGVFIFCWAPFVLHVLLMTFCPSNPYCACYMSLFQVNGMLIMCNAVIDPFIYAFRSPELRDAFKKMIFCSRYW

Binder	fold decrease in potency in cAMP production against ACTH(1-24) [1] [fold]	fold decrease in MC2R activation relative to full-length ACTH (cAMP production in transfected CHO cells) [2] [fold]
SYSMEHFRWGKPVGAAAAAVKVYP [ACTH analog SYSMEHFRWGKPVGAAAAAVKVYP]	1000	–
SYSMEHFRWGKPVGAARRPVKVYP [ACTH analog SYSMEHFRWGKPVGAARRPVKVYP]	–	100
SYSMEHFRWGKPVGKKAAAVKVYP [ACTH analog SYSMEHFRWGKPVGKKAAAVKVYP]	–	100
SYSMEHFRWAAAAAKKRRPVKVYP [ACTH analog SYSMEHFRWAAAAAKKRRPVKVYP]	–	400
